test system: Escherichia coli TOP10; assay: shrunken log2 fold change of peptide-encoding DNA abundance (4.5 h post-induction vs induction); higher = less antimicrobial activity (less host growth inhibition); conditions: time post-induction: 4.5 h; library: site-saturation at positions 5, 18, 19, 20
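Further: peptides expressed intracellularly from a pBAD plasmid library in pooled LB shake-flask culture, induced with 0.3% L-arabinose, DNA abundance read by NGS, three biological replicates, DESeq2 with apeglm shrinkage.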

Sequence	shrunken log2 fold change
RRIRCRPPRLPRPRPRPSGEPRP	0.299
RRIRVRPPRLPRPRPRPVYHPRP	-0.544
RRIRWRPPRLPRPRPRPIVKPRP	-0.174
RRIRKRPPRLPRPRPRPFKDPRP	-0.0776
RRIRLRPPRLPRPRPRPVDFPRP	0.0727
RRIRRRPPRLPRPRPRPTYEPRP	-0.21
RRIRQRPPRLPRPRPRPDVYPRP	0.0517
RRIRMRPPRLPRPRPRPMGVPRP	0.06
RRIRPRPPRLPRPRPRPLFIPRP	-0.459
RRIRARPPRLPRPRPRPPQAPRP	1.03
RRIRQRPPRLPRPRPRPQHLPRP	-0.0402
RRIRVRPPRLPRPRPRPHIIPRP	-0.204
RRIRHRPPRLPRPRPRPTPGPRP	0.327
RRIRSRPPRLPRPRPRPVTYPRP	-0.273
RRIRTRPPRLPRPRPRPVRHPRP	-0.041
RRIRIRPPRLPRPRPRPWKYPRP	-0.254
RRIRMRPPRLPRPRPRPAYHPRP	-0.157
RRIRSRPPRLPRPRPRPNRMPRP	0.309
RRIRDRPPRLPRPRPRPGTRPRP	0.118
RRIRVRPPRLPRPRPRPAQCPRP	-0.0313
RRIRWRPPRLPRPRPRPVCDPRP	0.534
RRIRERPPRLPRPRPRPYCFPRP	-0.511
RRIRERPPRLPRPRPRPWHVPRP	-0.0018
RRIRARPPRLPRPRPRPPEQPRP	0.941
RRIRKRPPRLPRPRPRPMCAPRP	0.583

Sequence	shrunken log2 fold change
RRIRARPPRLPRPRPRPVESPRP	0.986
RRIRQRPPRLPRPRPRPVQAPRP	-0.0131
RRIRERPPRLPRPRPRPRDEPRP	0.307
RRIRSRPPRLPRPRPRPHAAPRP	0.331
RRIRARPPRLPRPRPRPWETPRP	4.22
RRIRNRPPRLPRPRPRPEAEPRP	0.497
RRIRDRPPRLPRPRPRPVLNPRP	-0.165
RRIRERPPRLPRPRPRPDLMPRP	0.0435
RRIRLRPPRLPRPRPRPPDIPRP	-0.0356
RRIRLRPPRLPRPRPRPVNQPRP	-0.138
RRIRFRPPRLPRPRPRPWTDPRP	-0.345
RRIRWRPPRLPRPRPRPHDQPRP	0.36
RRIRYRPPRLPRPRPRPCILPRP	0.00867
RRIRFRPPRLPRPRPRPEQTPRP	-0.0498
RRIRQRPPRLPRPRPRPPCCPRP	0.0763
RRIRTRPPRLPRPRPRPLIRPRP	-0.133
RRIRARPPRLPRPRPRPCAGPRP	0.477
RRIRERPPRLPRPRPRPLEYPRP	-0.494
RRIRHRPPRLPRPRPRPYKYPRP	-0.128
RRIRFRPPRLPRPRPRPRTRPRP	0.244
RRIRDRPPRLPRPRPRPKNPPRP	-0.128
RRIRARPPRLPRPRPRPNRNPRP	-0.266
RRIRSRPPRLPRPRPRPGESPRP	0.249
RRIRGRPPRLPRPRPRPPQEPRP	0.352
RRIRPRPPRLPRPRPRPLGGPRP	1.53

Sequence	shrunken log2 fold change
RRIRDRPPRLPRPRPRPQDGPRP	0.0175
RRIRNRPPRLPRPRPRPSENPRP	-0.296
RRIRCRPPRLPRPRPRPEEPPRP	0.847
RRIRQRPPRLPRPRPRPQMMPRP	-0.082
RRIRQRPPRLPRPRPRPLCEPRP	-0.0868
RRIRWRPPRLPRPRPRPKHVPRP	0.254
RRIRTRPPRLPRPRPRPAYWPRP	-0.017
RRIRWRPPRLPRPRPRPMWCPRP	-0.166
RRIRLRPPRLPRPRPRPICNPRP	-0.243
RRIRSRPPRLPRPRPRPQRPPRP	0.0966
RRIRHRPPRLPRPRPRPEIPPRP	-0.111
RRIRFRPPRLPRPRPRPGVTPRP	0.0815
RRIRARPPRLPRPRPRPLAKPRP	0.835
RRIRIRPPRLPRPRPRPYYIPRP	-0.552
RRIRFRPPRLPRPRPRPHLYPRP	-0.355
RRIRKRPPRLPRPRPRPAKSPRP	0.254
RRIRWRPPRLPRPRPRPKCYPRP	-0.0376
RRIRYRPPRLPRPRPRPRPRPRP	0.463
RRIRWRPPRLPRPRPRPNHSPRP	-0.409
RRIRQRPPRLPRPRPRPKSCPRP	0.000945
RRIRMRPPRLPRPRPRPIGEPRP	0.0433
RRIRERPPRLPRPRPRPQENPRP	-0.164
RRIRSRPPRLPRPRPRPFKSPRP	0.0547
RRIRERPPRLPRPRPRPNGPPRP	-0.0578
RRIRKRPPRLPRPRPRPHEWPRP	0.3

Sequence	shrunken log2 fold change
RRIRDRPPRLPRPRPRPNWEPRP	0.0184
RRIRDRPPRLPRPRPRPAIGPRP	0.325
RRIRNRPPRLPRPRPRPWMFPRP	-0.182
RRIRKRPPRLPRPRPRPEYCPRP	0.109
RRIRRRPPRLPRPRPRPNSKPRP	-0.00313
RRIRMRPPRLPRPRPRPMGTPRP	0.301
RRIRCRPPRLPRPRPRPYLEPRP	-0.208
RRIRNRPPRLPRPRPRPHGSPRP	-0.00146
RRIRCRPPRLPRPRPRPRFYPRP	-0.234
RRIRTRPPRLPRPRPRPMLLPRP	-0.0757
RRIRNRPPRLPRPRPRPKWDPRP	0.0992
RRIRKRPPRLPRPRPRPQRFPRP	-0.00315
RRIRTRPPRLPRPRPRPKREPRP	0.319
RRIRGRPPRLPRPRPRPDFTPRP	0.22
RRIRFRPPRLPRPRPRPDFNPRP	-0.637
RRIRERPPRLPRPRPRPDDGPRP	-0.269
RRIRRRPPRLPRPRPRPRWRPRP	0.832
RRIRERPPRLPRPRPRPTGPPRP	0.353
RRIRKRPPRLPRPRPRPSETPRP	0.0356
RRIRPRPPRLPRPRPRPCMNPRP	-0.184
RRIRLRPPRLPRPRPRPQVSPRP	0.0548
RRIRVRPPRLPRPRPRPVKRPRP	0.0275
RRIRDRPPRLPRPRPRPQGHPRP	-0.0748
RRIRIRPPRLPRPRPRPYCPPRP	-0.175
RRIRWRPPRLPRPRPRPPDAPRP	0.5

Sequence	shrunken log2 fold change
RRIRMRPPRLPRPRPRPRAVPRP	0.989
RRIRFRPPRLPRPRPRPEGFPRP	0.518
RRIRHRPPRLPRPRPRPFQWPRP	-0.139
RRIRDRPPRLPRPRPRPIEQPRP	0.0525
RRIRCRPPRLPRPRPRPYQVPRP	-0.829
RRIRIRPPRLPRPRPRPAAGPRP	0.0506
RRIRMRPPRLPRPRPRPLDTPRP	-0.0606
RRIRSRPPRLPRPRPRPMPNPRP	-0.0112
RRIRVRPPRLPRPRPRPWEGPRP	0.0112
RRIRDRPPRLPRPRPRPCHYPRP	-0.639
RRIRPRPPRLPRPRPRPSWGPRP	-0.0123
RRIRPRPPRLPRPRPRPEVFPRP	0.0976
RRIRSRPPRLPRPRPRPLYKPRP	-0.486
RRIRTRPPRLPRPRPRPHMIPRP	-0.138
RRIRSRPPRLPRPRPRPSSKPRP	-0.219
RRIRSRPPRLPRPRPRPGQWPRP	-0.0109
RRIRWRPPRLPRPRPRPWLAPRP	-0.168
RRIRPRPPRLPRPRPRPHMRPRP	0.0614
RRIRARPPRLPRPRPRPYEEPRP	-0.441
RRIRDRPPRLPRPRPRPWFPPRP	-0.234
RRIRERPPRLPRPRPRPQWHPRP	-0.479
RRIRSRPPRLPRPRPRPAGRPRP	0.287
RRIRMRPPRLPRPRPRPSCMPRP	-0.0641
RRIRMRPPRLPRPRPRPQLMPRP	0.0471
RRIRGRPPRLPRPRPRPNELPRP	0.552

Sequence	shrunken log2 fold change
RRIRCRPPRLPRPRPRPHYKPRP	-0.894
RRIRRRPPRLPRPRPRPVLFPRP	0.315
RRIRFRPPRLPRPRPRPHPHPRP	-0.168
RRIRMRPPRLPRPRPRPDRFPRP	0.207
RRIRIRPPRLPRPRPRPYGPPRP	-1.06
RRIRWRPPRLPRPRPRPMRVPRP	1.03
RRIRFRPPRLPRPRPRPFGCPRP	-0.0616
RRIRDRPPRLPRPRPRPWYTPRP	-0.0848
RRIRSRPPRLPRPRPRPQDQPRP	-0.0695
RRIRERPPRLPRPRPRPQLTPRP	-0.576
RRIRNRPPRLPRPRPRPEHCPRP	-0.0139
RRIRHRPPRLPRPRPRPYEWPRP	-0.0335
RRIRPRPPRLPRPRPRPESEPRP	-0.0127
RRIRGRPPRLPRPRPRPVKPPRP	0.268
RRIRDRPPRLPRPRPRPPRNPRP	0.27
RRIRSRPPRLPRPRPRPEQFPRP	0.0895
RRIRMRPPRLPRPRPRPWGYPRP	0.101
RRIRTRPPRLPRPRPRPRDKPRP	-0.18
RRIRQRPPRLPRPRPRPWCCPRP	0.0636
RRIRARPPRLPRPRPRPIPAPRP	0.333
RRIRIRPPRLPRPRPRPRFQPRP	-0.0961
RRIRQRPPRLPRPRPRPCLHPRP	-0.0247
RRIRWRPPRLPRPRPRPTWMPRP	-0.029
RRIRIRPPRLPRPRPRPRCEPRP	-0.0571
RRIRQRPPRLPRPRPRPNYEPRP	-0.123

Reference: the supplement of paper PMC9112550, “Optimization of the antimicrobial peptide Bac7 by deep mutational scanning” (BMC Biology, 2022)
